This note sets out measurements from US20260000597A1 (priority 2018, published 2026).

Chain of AchR (P02708 21-457): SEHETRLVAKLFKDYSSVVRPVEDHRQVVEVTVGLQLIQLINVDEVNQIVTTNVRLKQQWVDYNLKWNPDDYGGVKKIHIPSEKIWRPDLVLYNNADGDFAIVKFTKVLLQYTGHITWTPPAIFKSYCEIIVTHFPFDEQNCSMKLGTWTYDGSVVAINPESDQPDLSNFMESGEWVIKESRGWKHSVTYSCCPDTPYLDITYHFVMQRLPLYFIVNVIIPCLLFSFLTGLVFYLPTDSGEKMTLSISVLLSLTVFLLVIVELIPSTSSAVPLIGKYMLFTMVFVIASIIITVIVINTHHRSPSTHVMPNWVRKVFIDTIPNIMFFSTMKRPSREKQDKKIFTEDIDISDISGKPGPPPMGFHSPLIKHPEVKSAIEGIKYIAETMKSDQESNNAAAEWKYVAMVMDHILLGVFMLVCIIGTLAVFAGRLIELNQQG

One assay addresses AchR (Homo sapiens, UniProt P02708). The assay can be described thus: ELISA of screened peptide phages on AchR versus streptavidin (OD450). In kind it is binding. To be noted: ELISA of selected 11-mer (L2) peptide phages on AchR, absorbance at 450 nm; Spep-2 positive control. Summed up:
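Phage supernatants from 4th–5th round plaques, in 2% BSA, applied 1 h at 30 °C to wells coated with 5 μg/ml AchR or streptavidin. Bound phage detected with HRP anti-M13 and TMB at OD450; value given as AchR/streptavidin signal ratio.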
Background: ELISA stands for enzyme-linked immunosorbent assay.
Substance “L2-160 (ADIRMKKWYPK; AchR binding peptide) [Peptide L2-160]” had an OD of 0.721.
Still for that read-out and setting: to “L2-124 (NVVRGRRLECR; AchR binding peptide) [Peptide L2-124]” belongs 0.556; to “L2-165 (AYPKFRKTFNR; AchR binding peptide) [Peptide L2-165]”, 0.718.
The same measure, in the same setting: to “L2-138 (IMERQRKSQHR; AchR binding peptide) [Peptide L2-138]” belongs 0.509; to “L2-16 (VDVRNKKSNNR; AchR binding peptide) [Peptide L2-16]”, 0.77.
The same measure, in the same setting: to “L2-48 (VSTKIKKEPQR; AchR binding peptide) [Peptide L2-48]” belongs 0.629; to “L2-24 (SFWRERKNGFR; AchR binding peptide) [Peptide L2-24]”, 0.812; to “L2-157 (NFYKCRKLQCK; AchR binding peptide) [Peptide L2-157]”, 0.731.
For “L2-97 (DVNKYRKHSHK; AchR binding peptide) [Peptide L2-97]”, the OD amounted to 0.531.
Consider “L2-136 (YTSKNKRGCPR; AchR binding peptide) [Peptide L2-136]”, for which the OD stood at 0.454.
Still for that read-out and setting: to “L2-111 (GYFRPRKETCK; AchR binding peptide) [Peptide L2-111]” belongs 0.594; to “L2-67 (KTGRSKRHRWR; AchR binding peptide) [Peptide L2-67]”, 0.696; to “L2-198 (DIYKGKRTLVK; AchR binding peptide) [Peptide L2-198]”, 0.718.
The same measure, in the same setting: the result for “L2-38 (ESEKIKRLSTR; AchR binding peptide) [Peptide L2-38]” reads 0.88; that for “L2-79 (EGAKYRRDGWR; AchR binding peptide) [Peptide L2-79]”, 0.689.
Same read-out and setting: to “L2-78 (HHNRMKKQYHR; AchR binding peptide) [Peptide L2-78]” belongs 0.718; to “L2-17 (GLNRWRRCHHK; AchR binding peptide) [Peptide L2-17]”, 0.72; to “L2-19 (GWNRAKREESK; AchR binding peptide) [Peptide L2-19]”, 0.727.
With “L2-57 (LEHKERKDDFR; AchR binding peptide) [Peptide L2-57]”, the OD came to 0.795.
Still for that read-out and setting: the result for “L2-30 (PTLKWRKPVLR; AchR binding peptide) [Peptide L2-30]” reads 0.746; that for “L2-200 (QGMKLKRIWSK; AchR binding peptide) [Peptide L2-200]”, 0.744.
On the same count and under the same terms, to “L2-91 (PIDKFKRGMVR; AchR binding peptide) [Peptide L2-91]” belongs 0.517.
“L2-197 (CPYRIRRGPGK; AchR binding peptide) [Peptide L2-197]” displayed an OD of 0.768.
Same read-out and setting: to “L2-140 (YPQKLRRTALK; AchR binding peptide) [Peptide L2-140]” belongs 0.445; to “L2-177 (LNSKPRRVEFK; AchR binding peptide) [Peptide L2-177]”, 0.768; to “L2-63 (IDGKWRKICTR; AchR binding peptide) [Peptide L2-63]”, 0.742.
The same measure, in the same setting: to “L2-46 (CYWKAKRYPMR; AchR binding peptide) [Peptide L2-46]” belongs 0.704; to “L2-33 (INYRCRKWVDK; AchR binding peptide) [Peptide L2-33]”, 0.619; to “L2-62 (NLHKPKRDLPK; AchR binding peptide) [Peptide L2-62]”, 0.736.
The substance “L2-51 (SLYRQKRHDYK; AchR binding peptide) [Peptide L2-51]” displayed an OD of 0.653.
Still for that read-out and setting: the result for “L2-29 (AILKGKRIPNK; AchR binding peptide) [Peptide L2-29]” reads 0.756; that for “L2-35 (NFTKLRKPGPR; AchR binding peptide) [Peptide L2-35]”, 0.683; that for “L2-122 (MGDRPRKWDSR; AchR binding peptide) [Peptide L2-122]”, 0.558.
Still for that read-out and setting: the result for “L2-59 (FGVKYRRVICR; AchR binding peptide) [Peptide L2-59]” reads 0.69.

The same assay, now with this note: ELISA of selected 14-mer (L3) peptide phages on AchR, absorbance at 450 nm; Spep-2 positive control.
For “L3-49 (VAFKTRRRVQRQSG; AchR binding peptide) [Peptide L3-49]”, the OD is given as 0.629.
Same read-out and setting: to “L3-61 (THDKCKKHNDKQAH; AchR binding peptide) [Peptide L3-61]” belongs 0.768; to “L3-3 (SGVRYRKWWIRSVV; AchR binding peptide) [Peptide L3-3]”, 0.88; to “L3-75 (QIPKQKKQEQRAIS; AchR binding peptide) [Peptide L3-75]”, 0.72.
On the same count and under the same terms, the result for “L3-87 (FLEKCRKFIIRVST; AchR binding peptide) [Peptide L3-87]” reads 0.743.
With “L3-109 (YITKFRKFLMKDQF; AchR binding peptide) [Peptide L3-109]”, the OD is 0.613.
In turn, “L3-120 (FLYKAKKALMRDSL; AchR binding peptide) [Peptide L3-120]” gave an OD of 0.887.
Still for that read-out and setting: the result for “L3-116 (YGSKQRRFEEKICG; AchR binding peptide) [Peptide L3-116]” reads 0.644; that for “L3-190 (VHHKLRRVHLRLDV; AchR binding peptide) [Peptide L3-190]”, 0.792; that for “L3-93 (EGGRIKRPNYRGDG; AchR binding peptide) [Peptide L3-93]”, 0.7.
Same read-out and setting: the result for “L3-159 (QIAKLKRDQMKEAW; AchR binding peptide) [Peptide L3-159]” reads 0.786.
On to “L3-42 (ETNRTRKQCYKTTF; AchR binding peptide) [Peptide L3-42]”, for which the OD is recorded as 0.71.
In the case of “L3-6 (EFVKLRKARLRGPQ; AchR binding peptide) [Peptide L3-6]”, the OD came to 0.77.
Still for that read-out and setting: the result for “L3-73 (WTCRMRKYQLRTSE; AchR binding peptide) [Peptide L3-73]” reads 0.771; that for “L3-198 (LPWRERRNGGRSSE; AchR binding peptide) [Peptide L3-198]”, 0.78.
Still for that read-out and setting: to “L3-82 (HMCRSKRVAWKNLI; AchR binding peptide) [Peptide L3-82]” belongs 0.783.
Still for that read-out and setting: to “L3-119 (TPLKSRKYWNKHAY; AchR binding peptide) [Peptide L3-119]” belongs 0.693.
As to “L3-131 (YTPKFRRIFWRIID; AchR binding peptide) [Peptide L3-131]”, the OD was determined as 0.655.
The same measure, in the same setting: to “L3-80 (MEGREKKSYNKGEN; AchR binding peptide) [Peptide L3-80]” belongs 0.589.
On the same count and under the same terms, the result for “L3-88 (PETRHRKMFIRDFW; AchR binding peptide) [Peptide L3-88]” reads 0.7; that for “L3-106 (DLVRKRKTMLRQLV; AchR binding peptide) [Peptide L3-106]”, 0.642; that for “L3-16 (DYLRSRKMEERFQE; AchR binding peptide) [Peptide L3-16]”, 0.797.
On to “L3-110 (AWAKYKKVQPKHHT; AchR binding peptide) [Peptide L3-110]”, for which the OD was 0.538.

The assay is the same for the next values; noted with them: phage ELISA, absorbance at 450 nm, 5 μg/ml AchR; 4th and 5th round biopanning phages.
Regarding “GGGRRRRRRRR [Peptide L2-204, reference compound]”, the OD came out at 0.311.
Same read-out and setting: the result for KWRKRRIK [Peptide L1-46] reads 0.637; that for KWKRFSQR [Peptide L1-197], 0.631.
Same read-out and setting: to RARKDAFK [Peptide L1-11] belongs 0.703.
Still for that read-out and setting: to KTRRSACR [Peptide L1-134] belongs 0.365; to RYKKQQYK [Peptide L1-167], 0.581.
In the case of RLKRAPGR [Peptide L1-33], the OD is reported as 0.529.
On the same count and under the same terms, to KVRRVFLK [Peptide L1-132] belongs 0.541.
Same read-out and setting: the result for KVRKSLWK [Peptide L1-52] reads 0.56; that for KERKHEAK [Peptide L1-62], 0.633.
The same measure, in the same setting: the result for RVKRFVPK [Peptide L1-112] reads 0.431; that for RFKRMVWR [Peptide L1-99], 0.543; that for RQKKDNQK [Peptide L1-26], 0.647.
Consider RIRRGSVR [Peptide L1-57], for which the OD turned out to be 0.408.
Same read-out and setting: to KSKRPEGR [Peptide L1-122] belongs 0.352.
On the same count and under the same terms, the result for KVKKIYYR [Peptide L1-144] reads 0.503.
Still for that read-out and setting: the result for RWKKNINK [Peptide L1-80] reads 0.631.
RIRRAHDR [Peptide L1-165]: the OD worked out at 0.644.
Regarding KAKRDYLR [Peptide L1-145], the OD was 0.54.
Same read-out and setting: to REKKYAYK [Peptide L1-181] belongs 0.589; to KNKKCVGR [Peptide L1-88], 0.562; to KFKRTEGR [Peptide L1-19], 0.575.
Same read-out and setting: to KCRKTMGR [Peptide L1-123] belongs 0.409.
The same measure, in the same setting: to KVKRLPYR [Peptide L1-146] belongs 0.362; to KERKGAVR [Peptide L1-100], 0.737.
In turn, KDKKQWGR [Peptide L1-114] yielded an OD of 0.42.
The same measure, in the same setting: the result for KIKKAARR [Peptide L1-35] reads 0.556; that for RSRRGIGK [Peptide L1-192], 0.581.
Turning to RYRRWFYR [Peptide L1-155], the OD came out at 0.618.
Same read-out and setting: the result for KIKRDLYK [Peptide L1-90] reads 0.439; that for KARKQEVR [Peptide L1-188], 0.618.
